Test results published in patent US20210102001A1 (CHIMAGEN BIOSCIENCES, published 2021).

T1: human CD19 (His-tagged) (human, UniProt P15391 20-291)
T1 construct: Captured on chips carrying anti-histidine antibodies
T1 sequence (looked up): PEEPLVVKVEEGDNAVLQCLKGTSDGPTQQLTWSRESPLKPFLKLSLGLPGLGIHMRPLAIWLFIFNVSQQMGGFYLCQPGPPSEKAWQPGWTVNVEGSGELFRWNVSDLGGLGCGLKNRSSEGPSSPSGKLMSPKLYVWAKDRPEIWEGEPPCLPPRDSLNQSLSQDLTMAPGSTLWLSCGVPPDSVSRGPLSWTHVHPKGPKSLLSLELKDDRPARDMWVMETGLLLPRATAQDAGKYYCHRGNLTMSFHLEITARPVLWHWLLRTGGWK


Key:
[1] = biological target: T1, human CD19 (His-tagged); assay: SPR (Biacore); CD19 captured on anti-His antibody chip, antibody injected at 5 concentrations
Protocol: (§1) A series of sample antibodies were assayed for SPR (Surface Plasmon Resonance) signals upon human CD19 binding on the Biacore platform. Kₐ, Kd and KD were calculated from the experimental results and used to evaluate affinity of the antibodies for human CD19. CD19 molecules as ligands were immobilized to chips conjugated with anti-histine antibodies. Sample antibodies, at 5 different concentrations, were injected to the system to be analyzed. Anti-CD3 antibody UCHT1 and anti-CD19 antibody HD37 were also examined as #20 and #21, respectively. The results are shonw in FIG. 7 and Table 15.

[2] = biological target: T2, human CD3 (human, UniProt P07766 23-126); assay: SPR (Biacore); CD3 captured on anti-His antibody chip, antibody injected at 5 concentrations
T2 construct: not shown: A CD3 delta or gamma partner chain is possible if the reagent was a heterodimer
Protocol: as §1, with “CD3” for “CD19”, “Ka,” for “Kₐ,”, “CD3. CD3” for “CD19. CD19”, “analyzed.” for “analyzed. Anti-CD3 antibody UCHT1 and anti-CD19 antibody HD37 were also examined as #20 and #21, respectively. The results are shonw in FIG. 7 and Table 15.”

[3] = biological target: T1, human CD19 (His-tagged); assay: SPR (BIAcore); His-tagged human CD19 captured on anti-His antibody chip, antibody at 5 concentrations
Protocol: (§2) Binding affinity for human CD3E or human CD19 of the CD3×CD19 bispecific antibody was tested by BIAcore, and Kₐ, Kd and KD values of the antibody were calculated based on the results. His-tagged human CD19 was used as ligand and captured on chips conjugated with anti-histine antibodies. Candidate molecules in five different concentrations were analyzed for their affinity for CD19. Affinity for human CD3E was examined using the same method.

[4] = biological target: T3, human CD3E (human, UniProt P07766 23-126, limits assumed); assay: SPR (BIAcore); human CD3E captured on anti-His antibody chip, antibody at 5 concentrations
T3 construct: Captured on chips carrying anti-histidine antibodies, 'using the same method' as the His-tagged CD19
Protocol: as §2

[5] = biological target: T1, human CD19 (His-tagged); assay: SPR (Biacore); CD19 captured on anti-His antibody chip, antibody injected at 5 concentrations; remark: listed apart in the source
Protocol: as §1, with “Affinity: Affinity kinetics studies based on human CD19-binding assays. A” for “A”, “analyzed.” for “analyzed. Anti-CD3 antibody UCHT1 and anti-CD19 antibody HD37 were also examined as #20 and #21, respectively. The results are shonw in FIG. 7 and Table 15.”

T2 sequence (P07766 23-126 limits assumed): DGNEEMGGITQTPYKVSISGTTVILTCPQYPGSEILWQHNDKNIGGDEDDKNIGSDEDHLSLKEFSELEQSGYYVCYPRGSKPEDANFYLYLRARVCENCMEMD
T3 sequence (P07766 23-126 limits assumed): as above

Binder | Kd [1] [nM] | Kd [2] [nM] | Kd [5] [nM] | other results
Antibody #1, CD19×CD3 Di-Diabody from HD37 and UCHT1, no interface mutations (bispecific antibody, Peptide 1: CD19VL-linker-CD3VH-hinge-CH2-CH3; also called 001; Sample01; not shown: hinge-CH2-CH3) chain 1: DIQLTQSPASLAVSLGQRATISCKASQSVDYDGDSYLNWYQQIPGQPPKLLIYDASNLVSGIPPRFSGSGSGTDFTLNIHPVEKVDAATYHCQQSTEDPWTFGGGTKLEIKRTVAAEVQLVESGGGLVQPGGSLRLSCAASGYSFTGYTMNWVRQAPGKGLEWVALINPYKGVSTYNQKFKDRFTISVDKSKNTAYLQMNSLRAEDTAVYYCARSGYYGDSDWYFDVWGQGTLVTVSS chain 2: DIQMTQSPSSLSASVGDRVTITCRASQDIRNYLNWYQQKPGKAPKLLIYYTSRLESGVPSRFSGSGSGTDYTLTISSLQPEDFATYYCQQGNTLPWTFGQGTKVEIKRTVAAQVQLQQSGAELVRPGSSVKISCKASGYAFSSYWMNWVKQRPGQGLEWIGQIWPGDGDTNYNGKFKGKATLTADESSSTAYMQLSSLASEDSAVYFCARRETTTVGRYYYAMDYWGQGTSVTVSS | 0.769 |  |  | 
Antibody #9, CD19×CD3 DICAD (bispecific antibody, name in Kabat numbering, also called 009; not shown: hinge-CH2-CH3) chain 1: DIQLTQSPASLAVSLGQRATISCKASQSVDYDGDSYLNWYQDIPGQPPKLLIYDASNLVSGIPPRFSGSGSGTDFTLNIHPVEKVDAATYHCQQSTEDPWTFGGGTKLEIKRTVAAEVQLVESGGGLVQPGGSLRLSCAASGYSFTGYTMNWVRDAPGKCLEWVALINPYKGVSTYNQKFKDRFTISVDKSKNTAYLQMNSLRAEDTAVYYCARSGYYGDSDWYFDVWGQGTLVTVSS chain 2: DIQMTQSPSSLSASVGDRVTITCRASQDIRNYLNWYQKKPGKAPKLLIYYTSRLESGVPSRFSGSGSGTDYTLTISSLQPEDFATYYCQQGNTLPWTFGCGTKVEIKRTVAAQVQLQQSGAELVRPGSSVKISCKASGYAFSSYWMNWVKKRPGQGLEWIGQIWPGDGDTNYNGKFKGKATLTADESSSTAYMQLSSLASEDSAVYFCARRETTTVGRYYYAMDYWGQGTSVTVSS | 0.26 | 172 |  | 
Antibody #63, DICAD CD19×CD3 (1:1) bispecific (bispecific antibody, also called 063; #63-CD3×CD19 bispecific) chain 1: EIVLTQSPATLSVTPGERATLSCSASSSVSYMHWYQKKPGQAPRLLIYDTSKLASGIPARFSGSGSGTDFTLTISSLEPEDFAVYYCFQGSVYPFTFGCGTKLEIKRTVAAEVQLVESGGGLVQPGGSLRLSCAASGFTFNTYAMNWVRKAPGKGLEWVGRIRSKYNNYATYYADSVDKGRFTISRDDSKNSLYLQMNSLKTEDTAVYYCVRHGNFGNSYVSWFAYWGQGTLVTVSS chain 2: EAVVTQEPSLTVSPGGTVTLTCRSSTGAVTTSNYANWVQDKPGQAPRGLIGGTNKRAPWTPARFSGSLLGGKAALTITGAQPEDEAGYYCALWYSNLWVFGGGTKLTVLRTVAAQVQLQESGPGLVKPSQTLSLTCTVSGGSISTSGMGVGWIRDHPGKCLEWIGHIWWDDDKRYNPALKSRVTISVDTSKNQFSLKLSSVTAADTAVYYCARMELWSYYFDYWGQGTTLTVSSASEPKSDKTHTCPPCPAPPVAGGPSVPLPPPKPKDTLMISRTPEVTCVVVDVSQEDPEVKFNWYVDGVGVHNAKTKPREEQFNSTYRVVSVLTVLHQDWLNGKEYKCKVSNKGLPSSIEKTISKAKGQPREPQVYTLPPCRDELTKNQVSLWCLVKGFYPSDIAVEWESNGQPENNYKTTPPVLDSDGSFFLYSKLTVDKSRWQQGNVFSCSVMHEALHNHYTQKSLSLSPGK chain 3: DKTHTCPPCPAPPVAGGPSVFLFPPKPKDTLMISRTPEVTCVVVDVSQEDPEVKFNWYVDGVEVHNAKTKPREEQFNSTYRVVSVLTVLHQDWLNGKEYKCKVSNKGLPSSIEKTISKAKGQPREPQVCTLPPSRDELTKNQVSLSCAVKGFYPSDIAVEWESNGQPENNYKTTPPVLDSDGSFFLVSKLTVDKSRWQQGNVFSCSVMHEALHNRFTQKSLSLSPGK |  |  |  | Kd [3]: 1.83 nM; koff [3]: 0.000669 s⁻¹; kon [3]: 365000 M⁻¹ s⁻¹; Kd [4]: 31.4 nM; koff [4]: 0.0153 s⁻¹; kon [4]: 488000 M⁻¹ s⁻¹
HD37, anti-CD19 parental antibody (#21) (antibody, V domains shown, also called 021) VH: QVQLQQSGAELVRPGSSVKISCKASGYAFSSYWMNWVKQRPGQGLEWIGQIWPGDGDTNYNGKFKGKATLTADESSSTAYMQLSSLASEDSAVYFCARRETTTVGRYYYAMDYWGQGTSVTVSS VL: DIQLTQSPASLAVSLGQRATISCKASQSVDYDGDSYLNWYQQIPGQPPKLLIYDASNLVSGIPPRFSGSGSGTDFTLNIHPVEKVDAATYHCQQSTEDPWTFGGGTKLEIK | 0.537 |  | 3.81 | binding result [2]: no binding
Antibody #54, TRIAD CD19×CD3 (Fab arm anti-CD19) (bispecific antibody) chain 1: DIQLTQSPASLAVSLGQRATISCKASQSVDYDGDSYLNWYQKIPGQPPKLLIYDASNLVSGIPPRFSGSGSGTDFTLNIHPVEKVDAATYHCQQSTEDPWTFGCGTKLEIK chain 2: EVQLVESGGGLVQPGGSLRLSCAASGYSFTGYTMNWVRKAPGKGLEWVALINPYKGVSTYNQKFKDRFTISVDKSKNTAYLQMNSLRAEDTAVYYCARSGYYGDSDWYFDVWGQGTLVTVSS chain 3: DIQMTQSPSSLSASVGDRVTITCRASQDIRNYLNWYQDKPGKAPKLLIYYTSRLESGVPSRFSGSGSGTDYTLTISSLQPEDFATYYCQQGNTLPWTFGQGTKVEIK chain 4: QVQLQQSGAELVRPGSSVKISCKASGYAFSSYWMNWVKDRPGQCLEWIGQIWPGDGDTNYNGKFKGKATLTADESSSTAYMQLSSLASEDSAVYFCARRETTTVGRYYYAMDYWGQGTSVTVSS chain 5: QVQLQQSGAELVRPGSSVKISCKASGYAFSSYWMNWVKQRPGQGLEWIGQIWPGDGDTNYNGKFKGKATLTADESSSTAYMQLSSLASEDSAVYFCARRETTTVGRYYYAMDYWGQGTSVTVSS chain 6: DIQLTQSPASLAVSLGQRATISCKASQSVDYDGDSYLNWYQQIPGQPPKLLIYDASNLVSGIPPRFSGSGSGTDFTLNIHPVEKVDAATYHCQQSTEDPWTFGGGTKLEIK |  |  | 0.806 | 
Antibody #50, TRIAD CD19×CD3 (Fab arm anti-CD19) (bispecific antibody) chain 1: DIQMTQSPSSLSASVGDRVTITCRASQDIRNYLNWYQKKPGKAPKLLIYYTSRLESGVPSRFSGSGSGTDYTLTISSLQPEDFATYYCQQGNTLPWTFGCGTKVEIK chain 2: QVQLQQSGAELVRPGSSVKISCKASGYAFSSYWMNWVKKRPGQGLEWIGQIWPGDGDTNYNGKFKGKATLTADESSSTAYMQLSSLASEDSAVYFCARRETTTVGRYYYAMDYWGQGTSVTVSS chain 3: DIQLTQSPASLAVSLGQRATISCKASQSVDYDGDSYLNWYQDIPGQPPKLLIYDASNLVSGIPPRFSGSGSGTDFTLNIHPVEKVDAATYHCQQSTEDPWTFGGGTKLEIK chain 4: EVQLVESGGGLVQPGGSLRLSCAASGYSFTGYTMNWVRDAPGKCLEWVALINPYKGVSTYNQKFKDRFTISVDKSKNTAYLQMNSLRAEDTAVYYCARSGYYGDSDWYFDVWGQGTLVTVSS chain 5: QVQLQQSGAELVRPGSSVKISCKASGYAFSSYWMNWVKQRPGQGLEWIGQIWPGDGDTNYNGKFKGKATLTADESSSTAYMQLSSLASEDSAVYFCARRETTTVGRYYYAMDYWGQGTSVTVSS chain 6: DIQLTQSPASLAVSLGQRATISCKASQSVDYDGDSYLNWYQQIPGQPPKLLIYDASNLVSGIPPRFSGSGSGTDFTLNIHPVEKVDAATYHCQQSTEDPWTFGGGTKLEIK |  |  | 1.73 | 
Antibody #25, CD19×CD3 DICAD (bispecific antibody, name in Kabat numbering, Same mutations as #9, with the 9-residue linker; also called 025; Sample25; not shown: hinge-CH2-CH3) chain 1: DIQLTQSPASLAVSLGQRATISCKASQSVDYDGDSYLNWYQDIPGQPPKLLIYDASNLVSGIPPRFSGSGSGTDFTLNIHPVEKVDAATYHCQQSTEDPWTFGGGTKLEIKGGSGGSGGSEVQLVESGGGLVQPGGSLRLSCAASGYSFTGYTMNWVRDAPGKCLEWVALINPYKGVSTYNQKFKDRFTISVDKSKNTAYLQMNSLRAEDTAVYYCARSGYYGDSDWYFDVWGQGTLVTVSS chain 2: DIQMTQSPSSLSASVGDRVTITCRASQDIRNYLNWYQKKPGKAPKLLIYYTSRLESGVPSRFSGSGSGTDYTLTISSLQPEDFATYYCQQGNTLPWTFGCGTKVEIKGGSGGSGGSQVQLQQSGAELVRPGSSVKISCKASGYAFSSYWMNWVKKRPGQGLEWIGQIWPGDGDTNYNGKFKGKATLTADESSSTAYMQLSSLASEDSAVYFCARRETTTVGRYYYAMDYWGQGTSVTVSS | 1 | 34.9 |  | 
Antibody #43, CD19×CD3 DICAD (bispecific antibody, also called 043; Sample43; not shown: hinge-CH2-CH3) chain 1: DIQLTQSPASLAVSLGQRATISCKASQSVDYDGDSYLNWYQQIPGQPPKLLIYDASNLVSGIPPRFSGSGSGTDFTLNIHPVEKVDAATYHCQQSTEDPWTFGGGTKLEIKGGSGGSGGSEVQLVESGGGLVQPGGSLRLSCAASGYSFTGYTMNWVRDAPGKCLEWVALINPYKGVSTYNQKFKDRFTISVDKSKNTAYLQMNSLRAEDTAVYYCARSGYYGDSDWYFDVWGQGTLVTVSS chain 2: DIQMTQSPSSLSASVGDRVTITCRASQDIRNYLNWYQKKPGKAPKLLIYYTSRLESGVPSRFSGSGSGTDYTLTISSLQPEDFATYYCQQGNTLPWTFGCGTKVEIKGGSGGSGGSQVQLQQSGAELVRPGSSVKISCKASGYAFSSYWMNWVKQRPGQGLEWIGQIWPGDGDTNYNGKFKGKATLTADESSSTAYMQLSSLASEDSAVYFCARRETTTVGRYYYAMDYWGQGTSVTVSS | 0.537 | 269 |  | 
